The values that follow come from article PMC4348336 (Biochemistry, 2015).

The experiment concerns the target Creatine kinase brain type (CKB) (UniProt P12277 1-381). Nature of the experiment: SEC-MALS.

Sequence of Creatine kinase brain type (CKB) (P12277 whole entry): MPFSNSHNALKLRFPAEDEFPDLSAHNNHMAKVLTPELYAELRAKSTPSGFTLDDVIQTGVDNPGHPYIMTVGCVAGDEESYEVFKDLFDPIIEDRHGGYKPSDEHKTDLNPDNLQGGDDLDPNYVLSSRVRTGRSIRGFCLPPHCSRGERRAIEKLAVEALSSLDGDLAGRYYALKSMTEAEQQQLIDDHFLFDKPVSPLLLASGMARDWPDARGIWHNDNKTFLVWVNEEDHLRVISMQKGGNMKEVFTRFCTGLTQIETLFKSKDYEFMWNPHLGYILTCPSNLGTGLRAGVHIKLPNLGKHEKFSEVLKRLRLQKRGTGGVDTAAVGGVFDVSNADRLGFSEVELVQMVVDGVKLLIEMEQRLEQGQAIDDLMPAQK

B1: ASB9(1-252) (domain or fragment, UniProt Q96DX5 1-252, looked up)
chain: MDGKQGGMDGSKPAGPRDFPGIRLLSNPLMGDAVSDWSPMHEAAIHGHQLSLRNLISQGWAVNIITADHVSPLHEACLGGHLSCVKILLKHGAQVNGVTADWHTPLFNACVSGSWDCVNLLLQHGASVQPESDLASPIHEAARRGHVECVNSLIAYGGNIDHKISHLGTPLYLACENQQRACVKKLLESGADVNQGKGQDSPLHAVARTASEELACLLMDFGADTQAKNAEGKRPVELVPPESPLAQLFLER
On to B1, for which the stoichiometry N – broadly, a count of units in the complex or per binding partner – came to 1 ASB9 per CK dimer.
